B1: WCSL IgG1 (sheet row 16) (antibody, V domains shown)
VH: QITLKESGPTLVKPTQTLTLTCTFSGFSLSTSGVGVGWIRQPPGKALEWLALIYWDDDKRYSPSLKSRLTITRDTSKNLVVLTMINMDPVDTATYYCAHSHSTTWGAFDYWGQGTLVTVSS
VL: DIVMTQSPDSLAVSLGERATINCKSSRSVLYTYNNKDDVAWYQQKPGQPPKLLIYWASTRESGVPDRFSGSGSGTDFTLTISSLQAEDVAVYYCQQYYSAPLTFGGGPRWRSN
B2: WCSL IgG1 (sheet row 10) (antibody, V domains shown)
VH: EVQLVESGGGLVKPGGSLRLSCAASGFTFSSYSMNWVRQAPGKGLEWVSSISSSSGYIYYSDSLKGRFTISRDNAKNSLYLQMNSLTAEDTAVYYCAREGHIASRGWGWFDSWGQGTLVTVSS
VL: DIVMTQSPVSLAVTPGESASISCRSSQSLLHRNGYNYVDWYLQKPGQSPQLLIYLGSTRASGVPDRFSGSGSGTDFSLQITRVEAEDVGVYYCMQPLEIPLTFGGGTKLEIK
B3: WCSL IgG1 (sheet row 6) (antibody, V domains shown)
VH: QVQLVESGGGLIQPGGSLRLSCAASGFLVSSKYMSWVRQAPGKGLEWVSSIYSGGDTYYADSVKGRFTISRDNSKNTLSLQMHSLKADDTAVYYCARGATGYSDSWYENWGQGTLVTVSS
VL: DIVMTQSPLSLPVTPGEPASISCRPSQSLLHSNGNNYLDWYLQKPGQSPQLLIYLGSNRASGVPDRFSGSGSGTDFTLRISSVEAEDVGVYYCMQALQNPLTFGQGTRLEIK
B4: WCSL IgG1 (sheet row 14) (antibody, V domains shown)
VH: VESGGGLVQPGGSLRLSCVASGAASGFTFSTESMNWVRQAPGKGLEWVSYIYPSGGGAYYADSVQGRFTVSRDNAKNSVYLQMNSLRVEDTAVYYCVRHQYGDYPSWGQGTPVTVSS
VL: DIVMTQSPLSLSVTPGEPASISCRSSQSLLHSNGFNYFDWYLQKPGQSPQLLIYLGSNRASGVPDRFSGSGSGTDFTLKISRVEAEDVGVYYCMQGLQIPYTFGQGTKLEIK
B5: WCSL IgG1 (sheet row 12) (antibody, V domains shown)
VH: EVQLLESGGGLVQPGGSLRLSCAASGFTFSSYWMHWVRQAPGKGLEWVSAISGSGGSTYYADSVKGRFTISRDNSKNTLYLQMNSLRAEDTAVYYCARDTPLYYDFWSGDAFDIWGQGTMVTVSS
VL: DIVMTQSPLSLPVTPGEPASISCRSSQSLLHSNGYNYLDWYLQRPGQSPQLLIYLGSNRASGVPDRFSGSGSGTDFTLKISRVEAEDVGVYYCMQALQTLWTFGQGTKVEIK
B6: WCSL IgG1 (sheet row 4) (antibody, V domains shown)
VH: EVQLLESGGGLVQPGGSLRLSCAASGFTFRNYAMSWVRQAPGKGLEWVSAISGSGSGTYYADSVKGRFTISRDNSKNTLYLQMNSLRAEDTAVYYCAKEGARIHWGQGTLVTVSS
VL: not shown
B7: WCSL IgG1 (sheet row 9) (antibody, V domains shown)
VH: EVQLVESGGGLVQPGGSLRLSCAASGFTFRNYAMSWVRQAPGKGLEWVSAISGSGSGTYYADSVKGRFTISRDNSKNTLYLQMNSLRAEDTAVYYCAKEGARIHWGQGTLVTVSS
VL: DIVMTQSPLSLSVTPGEPASISCRSSQSLLHSNGNNYFDWYLQKPGQAPQLLIYLGSNRASGVPDRFSGSGSGTDFTLKISRVEAEDVGVYYCMQALQTPWTFGQGTKVEIK
B8: WCSL IgG1 (sheet row 18) (antibody, V domains shown)
VH: EVQLVESGGGVVQPGRSLRLSCAASGFTFSSYGMHWVRQAPGKGLEWVSYIYPSGGGAYYADSVQGRFTVSRDNAKNSVYLQMNSLRVEDTAVYYCTRDFWSAPIPMWGQGTLVTVSS
VL: DIVMTQSPVSLPVTPGEPASISCRSSQSLLHSNGHNYLNWYLQKPGQSPHLLIYLGSNRASGVPDRFSGSGSGTDFTLNISRVEAEDVGVYYCMQALQTPWTFGQGTKVEIK
B9: WCSL IgG1 (sheet row 19) (antibody, V domains shown)
VH: EVQLVESGGGVVQPGRSLRLSCAASGFTFSNYAMSWVRQAPGKGLEWVSGISGSGGSTYYADSVKGRFTISRDNSKNTLYLQMNSLRAEDTAVYYCARDRGYSYAAFQHWGQGTLVTVSS
VL: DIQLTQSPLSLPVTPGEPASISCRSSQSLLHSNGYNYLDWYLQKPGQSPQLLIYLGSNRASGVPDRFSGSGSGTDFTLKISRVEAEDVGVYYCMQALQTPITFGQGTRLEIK
B10: WCSL IgG1 (sheet row 8) (antibody, V domains shown)
VH: QLQLQESGPGLVKPSETLSLTCTVSGGSISSSSYYWGWIRQPPGKGLEWIGSIYYSGSTYYNPSLKSRVTISVDTSKNQFSLKLSSVTAADTAVYYCASSPRNWGSPRFAFDIWGQGTMVTVSS
VL: QSVLTQPPSVSGAPGQRVTISCTGTTSNIGAGYDVHWYQQLPGTAPKLLIFGNTNRPSGVPERFSASRSGTSASLAITGLQTTDEADYYCQSYDNSLSGSRVFGGGTKLTVL
B11: WCSL IgG1 (sheet row 13) (antibody, V domains shown)
VH: EVQLVESGGGLVKPGGSLRLSCAASGFTFSSYSMNWVRQAPGKGLEWVSSISSSSSYIYYADSVKGRFTISRDNAKNSLYLQMNSLRAEDTAVYYCARATTVVTPGYFQHWGQGTLVTVSS
VL: EIVLTQSPATLSLSPGQRATLSCRASQSVSSSLAWYQQKPGQAPRLLIYDASDRATDIPARFSGSGSGTDFTLTISSLEPEDFAVYYCQQRTNWPPLTFGGGTKVEIK

recombinant human ACE2, sequence (Q9BYF1 18-805): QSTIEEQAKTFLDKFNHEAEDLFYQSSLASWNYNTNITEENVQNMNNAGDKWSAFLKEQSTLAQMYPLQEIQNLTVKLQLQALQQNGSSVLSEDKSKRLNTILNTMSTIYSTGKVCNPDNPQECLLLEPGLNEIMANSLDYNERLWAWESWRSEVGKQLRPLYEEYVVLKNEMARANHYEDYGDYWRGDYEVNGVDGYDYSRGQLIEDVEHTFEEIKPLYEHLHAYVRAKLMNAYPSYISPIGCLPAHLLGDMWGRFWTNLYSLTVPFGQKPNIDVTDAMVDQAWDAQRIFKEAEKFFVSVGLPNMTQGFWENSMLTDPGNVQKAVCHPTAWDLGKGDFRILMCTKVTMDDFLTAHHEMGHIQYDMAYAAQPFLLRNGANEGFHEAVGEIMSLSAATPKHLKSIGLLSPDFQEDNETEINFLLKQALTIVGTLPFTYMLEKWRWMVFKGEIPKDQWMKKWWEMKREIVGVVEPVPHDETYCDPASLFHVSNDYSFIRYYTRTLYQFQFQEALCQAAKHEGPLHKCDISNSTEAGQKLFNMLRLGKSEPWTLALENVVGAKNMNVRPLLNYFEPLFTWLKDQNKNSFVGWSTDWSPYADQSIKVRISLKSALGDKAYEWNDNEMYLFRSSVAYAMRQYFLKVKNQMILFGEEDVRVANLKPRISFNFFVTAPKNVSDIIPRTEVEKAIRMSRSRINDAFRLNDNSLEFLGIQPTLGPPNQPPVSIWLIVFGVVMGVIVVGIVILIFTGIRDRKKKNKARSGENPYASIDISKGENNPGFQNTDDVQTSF

The assay addresses recombinant human ACE2 (Homo sapiens, UniProt Q9BYF1).
As to B1, the binding result is given as “binds”.

Turning to B2, the binding result is “binds”.

Turning to B3, the binding result is “binds”.

With B4, the binding result is “binds”.

For the molecule B5, the binding result is listed as “binds”.

Consider B6, for which the binding result is “binds”.

For B7, the binding result was “binds”.

On to B8, for which the binding result is recorded as “binds”.

In the case of B9, the binding result was “binds”.

As for B10, the binding result is recorded as “binds”.

On to B11, for which the binding result is on record as “binds”.

The values are drawn from paper PMC10415184, “A placental model of SARS-CoV-2 infection reveals ACE2-dependent susceptibility and differentiation impairment in syncytiotrophoblasts” (Nature Cell Biology, 2023).
